Results published in article PMC4109901, “Functional EF-Hands in Neuronal Calcium Sensor GCAP2 Determine Its Phosphorylation State and Subcellular Distribution In Vivo, and Are Essential for Photoreceptor Cell Integrity” (PLoS Genetics, 2014).
Substitutions are numbered along the chain they refer to.

B1: recombinant bGCAP2, mock-treated (unphosphorylated) (natural protein, bovine, UniProt P51177 1-204, looked up)
chain: MGQQFSWEEAEENGAVGAADAAQLQEWYKKFLEECPSGTLFMHEFKRFFKVPDNEEATQYVEAMFRAFDTNGDNTIDFLEYVAALNLVLRGTLEHKLKWTFKIYDKDRNGCIDRQELLDIVESIYKLKKACSVEVEAEQQGKLLTPEEVVDRIFLLVDENGDGQLSLNEFVEGARRDKWVMKMLQMDLNPSSWISQQRRKSAMF
notes: Cross-linked to magnetic beads for the pull-down; also called mock bGCAP2; recombinant wildtype bGCAP2
B2: recombinant bEF^−GCAP2, mock-treated (unphosphorylated) (natural protein, bovine, UniProt P51177 1-204, looked up)
chain: B1 chain with E80Q, E116Q, D158N
notes: Cross-linked to magnetic beads for the pull-down; also called mock bEF^−GCAP2; unphosphorylated bEF^−GCAP2
B3: recombinant phosphorylated bEF^−GCAP2 (natural protein, bovine, UniProt P51177 1-204, looked up)
chain: B1 chain with E80Q, E116Q, D158N
modifications: phosphorylated in vitro by PKG; Ser201 named as the site
notes: Cross-linked to magnetic beads for the pull-down
B4: recombinant phosphorylated bGCAP2 (natural protein, bovine, UniProt P51177 1-204, looked up)
chain: B1 chain
modifications: phosphorylated in vitro by PKG; Ser201 named as the site
notes: Cross-linked to magnetic beads for the pull-down; also called P-GCAP2

Target: the molecule itself
Assay: SDS-PAGE and immunoblot; in vitro phosphorylation reactions (with or without cGMP, in EGTA) of purified recombinant GCAP2 resolved by 15% SDS-PAGE and immunostained for GCAP2; bands above the 25 kDa monomer

Binding result, binds:
B1
B2
B3
B4
